According to PMC10666094:

Tested on: CNBP full-length
Test: MST
Conditions: MST Buffer (composition, salt and pH not given); RED-Tris-NTA labeling 30 min at room temperature; RNA in 16 two-fold dilutions; 60% LED, high MST power …

SARS-CoV-2 genome RNA
Kd: 29.7 µg/mL
